Assay results: US20080096809A1

Molecular target: Tar-1 all-L NBD peptide (Escherichia coli)
Assay: FRET in PE/PG (7:3 w/w) SUV, NBD donor and rhodamine-TAMRA acceptor, acceptor-to-lipid ratio 1:7500

B1: Tar-1 diastereomeric rhodamine peptide (peptide)
peptide: KKKMVLGVFALLQLISGSLKK
modifications: not checked
Q: For B1, which energy transfer is on record?
A: The energy transfer was 30%.
